Test system: RBP7910 (Trypanosoma brucei)
Assay: MST
Details: RBB50: 20 mM HEPES pH 7.6, 150 mM KCl, 5 mM MgCl2, 100 ug/mL BSA, 10% glycerol, 50 nM oligo, room temperature 30-60 min, errors are 68% confidence

| Sequence | Kd [nM] |
| --- | --- |
| GGUGGGUUAUAUUUAUUUAUUUAUUUAUCAACUGGG [r(AUUU)4 ss] | 180 |
| GGUGGGUUAUAUUUAUUUAUUUAUUUAUCAACUGGG / CCCAGUUGAUAAAUAAAUAAAUAAAUAUAACCCACC [r(AUUU)4 ds] | 1880 |
| GGUGGGUUAUAUUCAUUCAUUCAUCAACUGGG / CCCAGUUGAUGAAUGAAUGAAUAUAACCCACC [r(AUUC)3 ds] | 1230 |
| GGUGGGUUAUUAUAUAUAUAUAAUCAACUGGG [r(UA)6 ss] | 880 |
| GGUGGGUUAUUUUUUUUUUUUUAUCAACUGGG / CCCAGUUGAUAAAAAAAAAAAAAUAACCCACC [r(UUUU)3 ds] | 1710 |
| GGUGGGUUAUUAUAUAUAUAUAAUCAACUGGG / CCCAGUUGAUUAUAUAUAUAUAAUAACCCACC [r(UA)6 ds] | 1340 |
| GGUGGGUUAUAUUCAUUCAUUCAUCAACUGGG [r(AUUC)3 ss] | 272 |
| GGUGGGUUAUUUUUUUUUUUUUAUCAACUGGG [r(UUUU)3 ss] | 147 |
| GGUGGGUUAUCGCGCGCGCGCGAUCAACUGGG / CCCAGUUGAUCGCGCGCGCGCGAUAACCCACC [r(GC)6 ds] | 3220 |
| GGTGGGTTATCGCGCGCGCGCGATCAACTGGG [d(GC)6 ss] | 22 |
| GGUGGGUUAUCGCGCGCGCGCGAUCAACUGGG [r(GC)6 ss] | 2030 |
| GGTGGGTTATCGCGCGCGCGCGATCAACTGGG (double strand) [d(GC)6 ds] | 444 |
